Here are results for 5 molecules from US20150266936A1.

Starred links: 1 amine or outer side, 2 acyl side, 3 side chain; linkers in the order of their positions; H or OH if unused. Non-standard residues stand in square brackets, D forms with d. No end group written: not given here. AO = 2-amino-3-(2-(aminooxy)acetamido)propanoic acid, O=C(CON[*:3])NC[C@H](N[*:1])C(=O)[*:2]

Test [1] addresses αvβ3, αvβ5, and α5β1 integrins on U87MG cells (human) (UniProt P06756). Put plainly: cell-based or functional assay.
The target is the same in test [2]. Kind of test: ratio of IC50 values, competition binding on U87MG cells.
Test [3] shares this target. Kind of test: competition binding on U87MG cells, flow cytometry; competitor 0.25 nM Alexa488-labeled EETI 2.5F; 4 °C, 10 h.
Test [4] shares this target. Kind of test: competition binding on U87MG cells, flow cytometry; competitor 5 nM Alexa488-labeled AgRP 7C; 4 °C, 10 h. (A flow cytometer gives signals particle by particle.)

B1: EETI 2.5F Dimer (designed binder)
chain: GCPRPRGDNPPLTC[AO]QDSDCLAGCVCGPNGFCG
modifications: not fully specified (residue 15, bridges); ends and bridges not checked; also: homodimer: two copies joined by oxime-bonded dialdehyde linker at X15
On to B1, for which, in test [1], the Adhesion EC50 (nM), U87MG cell adhesion to fibronectin was 8 nM; the fold more effective than the monomer in preventing U87MG cell adhesion stood at 100 fold; the fold more potent than Cilengitide at inhibiting U87MG cell proliferation was 100 fold; the inhibition of U87MG proliferation, 10 nM, 72 h (AlamarBlue) amounted to 28%. In test [1], the inhibition of U87MG proliferation, 100 nM, 72 h (AlamarBlue) was found to be 52%; the inhibition of U87MG proliferation, 500 nM, 24 h (AlamarBlue) turned out to be 53%; the inhibition of U87MG proliferation, 500 nM, 48 h (AlamarBlue) amounted to 68%; the inhibition of U87MG proliferation, 500 nM, 72 h (AlamarBlue) was 69%. This molecule also registered an inhibition of U87MG proliferation, 1000 nM, 72 h (AlamarBlue) in test [1] of 70%. In addition, in test [2], the fold increase of apparent binding affinity compared to the monomer was determined as 46 fold. The molecule further showed an IC50 in test [3] of 0.036 nM.

B2: AgRP 7C Dimer (designed binder)
chain: GCVRLHESCLGQQVPCCDPAATCYCYGRGDNDLRCYC[AO]
modifications: not fully specified (residue 38, bridges); ends and bridges not checked; also: homodimer: two copies joined by oxime-bonded dialdehyde linker at X38
With B2, in test [2], the fold increase of apparent binding affinity compared to the monomer is 4 fold. The same molecule gave an IC50 in test [4] of 3.2 nM.

The molecule GCPRPRGDNPPLTC[AO]QDSDCLAGCVCGPNGFCG (designed binder, disulfide (positions not given here)) [EETI 2.5F_AO] came in with an IC50 in test [3] of 1.57 nM.

For the molecule GCVRLHESCLGQQVPCCDPAATCYCYGRGDNDLRCYCR (designed binder, not fully specified (bridges); cysteine pairing not given here) [AgRP 7C], the IC50 in test [4] worked out at 13 nM.

In test [1], GCPRPRGDNPPLTCKQDSDCLAGCVCGPNGFCG (designed binder) [EETI 2.5F] returned an Adhesion EC50 (nM), U87MG cell adhesion to fibronectin of 180 nM; an inhibition of U87MG proliferation, 10 nM, 72 h (AlamarBlue) of 15%; an inhibition of U87MG proliferation, 100 nM, 72 h (AlamarBlue) of 30%; an inhibition of U87MG proliferation, 500 nM, 24 h (AlamarBlue) of 37%. In test [1], the inhibition of U87MG proliferation, 500 nM, 48 h (AlamarBlue) came to 44%; the inhibition of U87MG proliferation, 500 nM, 72 h (AlamarBlue) turned out to be 50%; the inhibition of U87MG proliferation, 1000 nM, 72 h (AlamarBlue) came to 60%. This molecule also returned an IC50 in test [3] of 1.64 nM.

What is called IC50 is the midpoint of a concentration-inhibition curve.
